Assay results published in patent publication US20220125947A1.
Numbering of substitutions follows the chain as printed.

B1: VG9B103 (antibody, human IgG1, kappa, V domains shown)
VH: EVQLVQSGAEVKKPGSSVKVSCKTSGGTFSSYAISWVRQAPGQGLEWMGGIIPIFGTATYAQKFQDRVTITADKSTSTAYMELSSLRSEDTAVFYCARGVGWGTDYYYGLDVWGQGTTVTVSS
VL: ETTLTQSPLSSPVTLGQPASISCRSSQGLVHSDGNTYLSWLQQRPGQSPRLLIYKISNRFSGVPDRFSGSGAGTDFTLKISRVEAEDVGVYYCMQATHHPLTFGGGTKVEIKR
B2: VG9B208 (antibody, human IgG1, lambda, V domains shown)
VH: QVQLQESGPGLVKPSETLSLTCTVSGGSISGYYWSWIRQPPGKGLELIGYIFYSGSINYNPSLKNRVTISLDTSKNQFSLKLTSVTAADTAVYYCARVGKWELRSSFDIWGQGTMVTVSS
VL: QSVLTQPPSVSAAPGQKVTISCSGSTSNIGNNDVSWYQQLPGTAPKLLIYDNNKRPSGIPDRFSGSKSGTSATLGITGLQTGDEADYYCGTWDSSLSVWVFGGGTKLTVLG
B3: VG9B203 (antibody, human IgG1, lambda, V domains shown)
VH: QVQLVQSGPGLVKPSETLSLTCTVSGDSIGHYYWNWIRQPAGKGLEWIGRIYTSGSTNYNPSLKSRVTMSVDTSKNQFSLKLSSVTAADTAVYYCARSGGNFYWYFDLWGRGTLVTVSS
VL: B2 VL with T26S, D33Y, L40V, F63I, V98A, W99G, L107V
B4: VG9B87 (antibody, human IgG1, kappa, V domains shown)
VH: QVQLVESGAEVKKPGASVKVSCKASGYTFTSEYIHWVRQAPGQGLEWMGIINPSGGSTSYAQRFQGRVTMTRDTSTSTVYMEVNSLRSEDTAVYYCARERGYSYGSFDYWGQGTLVTVSS
VL: EIVLTQSPSFLSASAGDRVTITCRASQGISSYLAWYQQKPEKAPKLLIYAASTLQSGVPSRFSGSGSGTEFTLTISSLQPEDFATYYCQQFNSYSLTFGGGTKLEIKR
B5: VG9B147 (antibody, human IgG1, lambda, V domains shown)
VH: QVQLQESGPGLVNPSETLSLTCTVSGGSISGYFWNWIRQPPGKGLEWIGYIFYSGSTNYNPSLKSRVTISVDTSKNQFSLKLSSVTAADTAIYYCAREGKWELRSTFDIWGQGTMVTVSS
VL: SSELTQDPAVSVALGQTVRITCQGDSLRSYYATWYQQKPGQAPILVIYGENNRPSGIPDRFSGSRSGNTASLTITGAQAEDEADYYCNSRDTGDHHLVFGGGTKLTVLG
B6: VG9B380 (antibody, human IgG1, lambda, V domains shown)
VH: QVQLQESGPGLVKPSETLSLTCTVSGGSISNYYWSWIRQPAGKGLEWIGRIYPSGITSYDPSLKSRVTMSLDTSKNQFSLKLTSVTAADTAVYYCAGIMGTKGAFDIWGQGTMVTVSS
VL: QSALTQPASVSGSPGQSITISCTGTSSDVGGYNYVSWYQQHPGKAPKLLIYEVSNRPSGVSNRFSGSKSGSTASLTISGLQAEDEADYYCSSYTSTSVVFGGGTKLTVLG
B7: VG9B177 (antibody, human IgG1, lambda, V domains shown)
VH: QVQLQESGPGLVKPSETLSLTCTVSGGSINNYFWSWIRQPPGKGLEWIGYIFYSGSTNYNPSLKSRVTISIDTSKNQFSLKVNSVTAADTAVYYCARVGKWELRTAFDIWGQGTMVTVSS
VL: QSALTQPASVSGSPGQSITISCTGTSSDVADYNYVSWYQQHPGKAPKLMIYEVSNRPSGVSNRFSGSKSGNTASLTISGLQAEDEADYYCCSYTSSFTVVFGGGTKVTVLG
B8: VG9B114 (antibody, human IgG1, kappa, V domains shown)
VH: EVQLVESGGDLVQPGGSLRLSCAASGFTFSRYDMHWVRQATGKGLEWVSAIGSAGDTYYPGSVKGRFTISRENAKNSLYLQMNSLRAGDTAVYYCARGKWELRDAFDIWGQGTMVTVSS
VL: DIVMTQSPSFLSASVGDRVTITCRASQGIHSYLAWYQQKPGKAPKLLIYVASTLQSGVPSRFSGSRSGTEFTLTISSLQPEDFATYYCQQLNSYPYTFGQGTKLEIKR
B9: VG9B81 (antibody, human IgG1, kappa, V domains shown)
VH: QVQLQESGPGLVKPSETLSLTCSVSGGSINTYYWSWFRQPAGKGLELIGRIYTSDNTNYNPSLKSRVTMSVDTSKNQFSLKLSSVTAADTAVYYCARYNWNYWYFDLWGRGTLVTVSS
VL: B8 VL with V3Q, G16R, T20N, H30S, V50T, R66G, Q90H, L104V
B10: VG9B372 (antibody, human IgG1, kappa, V domains shown)
VH: QVQLQESGPGLVKPSQTLSLTCTVSGGSISNGGFYWSWIRQHPGKGLEWLGYINYSGSTYYNPSLESRGTISLDTSKNQFSLKLRSVTAADTAVYYCARDRNYEWNFDLWGRGTLVTVSS
VL: EIVMTQSPATLSLSPGEGATLSCRASQSVSSYLAWYQQKPGQAPRLLVYDASNRATGIPARFSGSGSGTAFTLTITSLEPEDFVVYYCQQRSNWPLTFGGGTKLEIKR
B11: VG9B163 (antibody, human IgG1, lambda, V domains shown)
VH: QVQLVQSGGGLVKPGASLKLSCAASGFTFSNHGMSWVRQTSDKRLEWVASITRGGDTTYYPDNVKGRFTISRENAKNTLYLQMSSLKSDDTALYYCTRGPLTVGYAMDYWGQGTTVTVSS
VL: QLVLTQPPSVSAAPGQKVTISCSGNSSNIGHNYVSWYQQLPGTAPKLLIYDNNQRPSGIPDRFSGSKSDTSATLGITGLQTGDEADYYCGIWDSSLSIVVFGGGTKVTVLG
B12: VG9B379 (antibody, human IgG1, lambda, V domains shown)
VH: EVQLVQSGPEVKKPGASVKVSCKASGYTFTGDYIHWVRQVPGQGLEWMGWINPNSGGTNYAQKFQGRVTMTRDTSISTAFMELSRLRSDDTAVYYCAREGGVAPAAPDAFDIWGQGTMVTVSS
VL: B5 VL with T33R, I44V, L45V, E50K, R65S, T92S, G93S, D94G, H95N, L97R
B13: VG9B387 (antibody, human IgG1, lambda, V domains shown)
VH: EVQLVESGAEVKKPGASVKVSCKASGFTFTGYYLQWVRQAPGQGLEWMGWINPNSGYTDYAQRFQDRVTMTRDTSINTAYMELSRLRSDDTAVYYCARLDDAFDVWGQGTMVTVSS
VL: SYELTQDPAVSVALGQTVRITCQGDSLRNYYAIWYQQKPGQAPVLVIFGKNNRPSGIPDRFSGSSSGTTASLTITGTQAEDEADYYCNSRDSSGNHWVFGGGTKLTVLG
B14: VG9B392 (antibody, human IgG1, lambda, V domains shown)
VH: QVQLVQSGAEVKRPGASAKVSCKTSGYTFTGYYIHWVRQAPGQGLEWMGWINPNSGYTNSAQKFQGRVSMTRDTSISTVYMELSRLRSDDTAVYYCAREDDAFDIWGQGTLVTVSS
VL: B13 VL with Y2S, N29S, I33R, F48Y, T68D, T77A, Q78L, S92N, W97V, L105V
B15: VG9B47 (antibody, human IgG1, kappa, V domains shown)
VH: QVQLVQSGAEVKKPGSSVKVSCKASGGSFSNYAISWMRQAPGQGLEWMGGIIPFFGTPDYAQKFQGRVTITADKSTSTAYMELSSLRSEDTAVYYCSTGGGYGDYDYYYGINVWGQGTMVTVSS
VL: DIVMTQSPLSSPVDLGQPASISCRSSQSLVHSDGNTYLSWLQQRPGQPPRLLIYKISNRFSGVPDRFSGSGAGTDFTLKISRVEAEDVGVYYCMQAKEFPLTLGGGTKVDIKR
B16: VG9B96 (antibody, human IgG1, kappa, V domains shown)
VH: EVQLVQSGAEVKKPGSSVKVSCKASGGTFSNYAISWVRLAPGQGLEWMGGIIPIFSAGTYAQRFQGRVTITADKSTSTAYMELNSLRSEDTAVYYCSSNSGTYYDYYYGMDVWGQGTMVTVSS
VL: B15 VL with P12H, D14T, S57F, F60L, E98Q, L103F, D110E
B17: VG9B77 (antibody, human IgG1, kappa, V domains shown)
VH: EVQLVESGAEVMKPGSSVKVSCKASGGTFSSYAISWVRQAPEQGLEWMGGIIPFFGTADYAQKFQGRVTITADKSTNTAYMELTSLRSEDTAVYYCATATVTTDYYYGMDVWGQGTMVTVSS
VL: B15 VL with D1E, S10F, D14T, K55E, S61T, K97R, E98Q, L103F, D110E

Molecular target: Vg5/Vd2 T cell receptor expressed on SKW3 cells (UniProt A0JD36)
Assay: flow cytometry, dose-response binding at 37 C, SKW3 cells expressing Vg5/Vd2

Vg5/Vd2 T cell receptor expressed on SKW3 cells, sequence (A0JD36 20-115): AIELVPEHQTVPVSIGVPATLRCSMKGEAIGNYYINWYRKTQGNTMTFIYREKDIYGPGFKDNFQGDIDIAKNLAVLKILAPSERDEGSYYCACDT

Row | Max. Activity (fold over background) | Binder
1 | 237 | B1
2 | 203 | B2
3 | 194 | B3
4 | 51.6 | B4
5 | 69.8 | B5
6 | 233 | B6
7 | 193 | B7
8 | 226 | B8
9 | 77 | B9
10 | 171 | B10
11 | 48.9 | B11

Molecular target: Vg9/Vd2 TCR on SKW3_4 cells (UniProt Q99603)
Assay: flow cytometry DRC binding 37 C, SKW3_4 cells expressing Vg9/Vd2

Vg9/Vd2 TCR on SKW3_4 cells, sequence (Q99603 21-122, chain 1 of 2): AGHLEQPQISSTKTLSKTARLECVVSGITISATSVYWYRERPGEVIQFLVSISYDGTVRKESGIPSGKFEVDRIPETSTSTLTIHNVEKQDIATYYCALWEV
Vg9/Vd2 TCR on SKW3_4 cells, sequence (A0JD36 20-115, chain 2 of 2, further chain): as the sequence (A0JD36 20-115) above

Row | Max. Activity (fold over background) | Binder
12 | 160 | B12
13 | 201 | B13
14 | 154 | B14
15 | 162 | B15
16 | 126 | B16
17 | 102 | B17

Molecular target: Vg9/Vd1 T cell receptor expressed on SKW3 cells (UniProt Q99603)
Assay: flow cytometry, dose-response binding at 37 C, SKW3 cells expressing Vg9/Vd1

Vg9/Vd1 T cell receptor expressed on SKW3 cells, sequence (Q99603 21-122): as the sequence (Q99603 21-122, chain 1 of 2) above

Row | Max. Activity (fold over background) | Binder
18 | 1.79 | B1
19 | 2.15 | B2
20 | 1.3 | B3
21 | 1.4 | B4
22 | 1.59 | B5
23 | 11.6 | B6
24 | 1.28 | B7
25 | 8.38 | B8
26 | 1.17 | B9
27 | 1.02 | B10
28 | 10.6 | B11

Molecular target: Vg9/Vd1 TCR on SKW3 cells (UniProt Q99603)
Assay: flow cytometry DRC binding 37 C, SKW3 cells expressing Vg9/Vd1

Vg9/Vd1 TCR on SKW3 cells, sequence (Q99603 21-122): as the sequence (Q99603 21-122, chain 1 of 2) above

Row | Max. Activity (fold over background) | Binder
29 | 295 | B12
30 | 435 | B13
31 | 295 | B14
32 | 308 | B15
33 | 245 | B16
34 | 137 | B17

Molecular target: Vg5/Vd2 TCR on SKW3 cells (UniProt A0JD36)
Assay: flow cytometry DRC binding 37 C, SKW3 cells expressing Vg5/Vd2

Vg5/Vd2 TCR on SKW3 cells, sequence (A0JD36 20-115): as the sequence (A0JD36 20-115) above

Row | Max. Activity (fold over background) | Binder
35 | 260 | B12
36 | 261 | B13
37 | 281 | B14
38 | 212 | B15
39 | 224 | B16
40 | 148 | B17

Molecular target: Vg9/Vd2 T cell receptor expressed on SKW3_4 cells (UniProt Q99603)
Assay: flow cytometry, dose-response binding at 37 C, SKW3_4 cells expressing Vg9/Vd2

Vg9/Vd2 T cell receptor expressed on SKW3_4 cells, sequence (Q99603 21-122, chain 1 of 2): as the sequence (Q99603 21-122, chain 1 of 2) above
Vg9/Vd2 T cell receptor expressed on SKW3_4 cells, sequence (A0JD36 20-115, chain 2 of 2, further chain): as the sequence (A0JD36 20-115) above

Row | Max. Activity (fold over background) | Binder
41 | 96.4 | B1
42 | 177 | B2
43 | 143 | B3
44 | 139 | B4
45 | 30.5 | B5
46 | 164 | B6
47 | 161 | B7
48 | 176 | B8
49 | 42.2 | B9
50 | 127 | B10
51 | 57.2 | B11
